According to patent US20150276740A1, “METHOD FOR D[…] ACTIVITY” (SYSMEX CORPORATION, priority 2014, published 2015):

Tests used:
[1] = tested on: biotinylated CDK2 substrate peptide (Biotin-Ahx-His-His-Ala-Ser-Pro-Arg-Lys)
[2] = target: T1, CDK1 (Homo sapiens, UniProt P06493); test: Determination of CDK1 kinase activity using chemical luminescence with the ATP derivative as phosphate-group donor (S/N evaluation); format: biochemical; details: CDK1 immunoprecipitated from K562 solubilized sample; biotinylated CDK2 substrate peptide; anti-DNP antibody detection; compared to the S/N ratio of Comparative Example 1 (ATPγS as phosphate-group donor)
T1 construct: a reaction was caused to occur between CDK1 and the anti-CDK1 antibody; endogenous in cells; host or cells: K562 cells (lysate, immunoprecipitated with anti-CDK1 antibody from Operon on protein A Sepharose beads)
Protocol: In a well of a 96-well filter plate (hydrophilic PVDF membrane manufactured by Millipore Corp.), 70 μL of an immunoprecipitation buffer (a buffer containing 0.1 mass % Nonidet NP-40 and 50 mM tris hydrochloride (pH7.4)) was added. Then, with respect to the immunoprecipitation buffer in the well, 20 μL of an antibody solution containing 16 μg of an anti-CDK1 antibody (manufactured by Operon Co., ltd.), and 30 μL of 20 v/v % Sepharose beads (manufactured by GE Healthcare) coated with protein A were added. […]
Next, with respect to the beads that had been cleaned, 50 μL of the CDK substrate solution (composition: 100 ng/μL biotinylated CDK2 substrate peptide (manufactured by Enzo Inc.), the compound 2 represented by formula (x2), 54 mM tris hydrochloride (pH7.4), and 20 mM magnesium chloride) was added to obtain a mixture. The concentration of the compound 2 was a concentration that provided an absorbance of 2 at 362 nm. This absorbance was measured in a manner similar to that in Example 1 (2). […]

T1 sequence (P06493 whole entry): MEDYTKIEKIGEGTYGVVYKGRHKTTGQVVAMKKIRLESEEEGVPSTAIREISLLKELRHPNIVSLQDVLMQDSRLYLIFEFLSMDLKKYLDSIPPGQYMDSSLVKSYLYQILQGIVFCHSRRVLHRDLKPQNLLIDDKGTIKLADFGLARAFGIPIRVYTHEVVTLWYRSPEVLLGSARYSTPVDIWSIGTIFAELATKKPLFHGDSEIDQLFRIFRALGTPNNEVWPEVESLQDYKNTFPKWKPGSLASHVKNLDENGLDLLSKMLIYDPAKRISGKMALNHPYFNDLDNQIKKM
T1 sequence (P14635 whole entry partner): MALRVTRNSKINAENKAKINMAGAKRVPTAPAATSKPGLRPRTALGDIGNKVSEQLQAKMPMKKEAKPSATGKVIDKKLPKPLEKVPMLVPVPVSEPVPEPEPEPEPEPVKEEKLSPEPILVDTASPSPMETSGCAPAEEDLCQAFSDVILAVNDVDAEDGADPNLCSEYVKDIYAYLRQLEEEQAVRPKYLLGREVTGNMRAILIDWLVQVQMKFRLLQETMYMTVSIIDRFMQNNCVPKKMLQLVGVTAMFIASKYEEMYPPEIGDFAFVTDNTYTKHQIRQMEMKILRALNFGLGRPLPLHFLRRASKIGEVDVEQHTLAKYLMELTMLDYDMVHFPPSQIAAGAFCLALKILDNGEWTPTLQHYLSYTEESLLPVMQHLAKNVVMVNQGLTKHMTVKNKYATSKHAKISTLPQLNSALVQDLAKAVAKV

| Compound | specific luminescence intensity based on CDK2 activity (ATPγDNP transphosphorylation, ALP labeled anti-DNP antibody, chemiluminescence) [1] | S/N ratio (luminescence intensity A1/luminescence intensity B) [2] |
| --- | --- | --- |
| cyclin-dependent kinase (CDK) 2 | the specific luminescence intensity based on CDK2 activity increases in association with an increase in the CDK2 concentration (increase in the solubilized sample concentration) | – |
| Nc1ncnc2c1ncn2C1OC(COP(=O)(O)OP(=O)(O)OP(=O)(O)SC2CC(=O)N(CCC(=O)NCCOCCOCCCNC(CCCCNc3ccc([N+](=O)[O-])cc3[N+](=O)[O-])C(=O)O)C2=O)C(O)C1O (centres unmarked) [compound 4] | – | tended to be high |
